Source: patent US20250320277A1

B1: DC2.M336 (antibody, V domains shown)
VH: QVQLVQSGGRLVKPGGSLRLSCAASGFTIIDSYMSWIRQAPGKGLEWISYINPSGSVIYYSDSVKGRFISSRDNAKNSVYLQLSSLRAEDAAVYYCARGIYDQSDAFDLWGQGTTVTVSS
VL: DIVLTQSPSSLSASVGDRVTITCRASQGISNSLAWYQQRPGKAPKLLIYGASRLGSGVPSRFSGSGSGADYTLTISGLQPEDFATYYCQQYYITPPMTFGPGTKVDIK
B2: DC2.M17 (antibody, V domains shown)
VH: EVQLVESGSELKKPGASVRVSCEASGYSFTSHTIVWMRQAPGQGLECLGWINTNTGNPTYAQGFTGRFVFSLDTSVSTAYLQISSLKAADTAVYYCARVLKCLGGSASCSGHGYYDYGMAVWGQGTTVTVSS
VL: DIVLTQSPLSLPVTPGEPASISCRSSQSLLHSNGYNFLHWYLQKPGQSPQLLIYLGSIRASGVPDRFSGSGSGTDFTLKISRVEAEDVGVYYCMQALQTFMYTFGQGTKLEIK
B3: DC2.M342 (antibody, V domains shown)
VH: QVQLVQSGAEVKKSGSSVTVSCKASGSTFISHAISWVRQAPGEGLEWMGRLIPVSGTPKYAHKFQGRLTITADDSTTTVYLTLRSLRFEDTAVYYCATWDADSTTLLYYFMDVWGKGTTVTVSS
VL: DIQVTQSPSTLSASVGDRVTITCRASQSISRWLAWYQQKPGKAPKLLIYKASSLESGVPSRFSGTGSGTEFTLTISSLQPDDFATYYCQQYNSYSTWTFGQGTKLEIK
B4: DC2.M5 (antibody, V domains shown)
VH: EVQLVESGGGLVQPGGSLSLACEVSGFILSDHYIDWVRQAPGKGLEWVGRSRNKAKRYTTEYAASVKGRFTISRDDSNNSLYLLMKSLKTEDTAVYFCTRAGYYDKNGDSLDALDIWGQGTMVTVSS
VL: DIQVTQSPSSLSASVGDRVTITCRTSQTVSSNLNWYQQRPGKAPKLLISGISDLHSGVPSRFSGSGSGTDSTLTISSLQPEDSATYYCQQSYSLPRTFGQGTKVEIK
B5: DC2.M301 (antibody, V domains shown)
VH: QVQLVQSGAEVKKPGAAVKVSCKASGYTFSGYYIHWVRQAPGQGLEWMGWINPNSGGTDFAQKFQGRVTMTRDTSISTAYMELSRLRSDDTAVYLCSRDPGYTYGYPLGYWGQGTLVTVSS
VL: ETTLTQSPGTLSLSPGERATLSCRASQSVSSSYLAWYQQKPGQAPRLLIYGTSSRATGIPDRFSGRGSGTDFTLTISRLEPEDFAVYYCQQYGNSPPYTFGQGTKVDIK
B6: DC2.M287 (antibody, V domains shown)
VH: EVQLVESGGGLVQPGGSLRLSCAASGFTFRDYWMIWVRQTPGKGLEWVANINRNGNEKHYVDSLKGRFTISRDNTKNSLYLQVNGLSAEDTAVYYCVRDSSPSFGPGNYYDAFDIWGQGTTVTVSS
VL: DIRVTQSPSSLSASVGDRVTITCRASQDIRNEVGWYQQKPGQAPKVLIFAASTLQSGVPSRFRGSGSGTVFTLTISSLQPEDLATYYCLQDFNYPRTFGQGTKVDIK

Columns and labels:
[1] = molecular target: CHIKV p62-E1 (Chikungunya virus); assay: ELISA, plate-coated p62-E1, eight-point mAb dilution
[2] = molecular target: MAYV p62-E1 (Mayaro virus (BeAr 20290)); assay: as above
[3] = molecular target: CHIKV p62-E1 (Chikungunya virus)
[4] = molecular target: CHIKV p62-E1 (Chikungunya virus); assay: BLI, mAb on anti-human Fc sensor
[5] = molecular target: CHIKV p62-E1 (Chikungunya virus); assay: BLI, […], global 1:1 fit; […]

Row | Binder | EC50 [1] | EC50 [2] | kon [3] | fold higher binding affinity for CHIKV p62-E1 than MAYV p62-E1 [4] | Kd [5]
1 | B1 | 0.9 nM | 12.5 nM | – | – | –
2 | B2 | 0.9 nM | – | – | – | –
3 | B3 | 35 nM | 130 nM | – | – | –
4 | B4 | 33 nM | 39 nM | – | – | –
5 | B5 | 0.88 nM | – | 260000 M⁻¹ s⁻¹ | 10 fold | 1.6 nM
6 | B6 | 43 nM | – | – | – | –
